{"source": "paper PMC7904604", "binders": {"B1": {"name": "non-specific sequence (dsDNA)", "DNA 1": "GGCTCTTCCGGTCGTGCAAGAGGAAATACAAAAAA", "DNA 2": "TTTTTTGTATTTCCTCTTGCACGACCGGAAGAGCC"}}, "molecular_target": "GST-BLMP-1(ZnFs) (Caenorhabditis elegans, UniProt Q93560 508-642)", "sequence (Q93560 508-642)": "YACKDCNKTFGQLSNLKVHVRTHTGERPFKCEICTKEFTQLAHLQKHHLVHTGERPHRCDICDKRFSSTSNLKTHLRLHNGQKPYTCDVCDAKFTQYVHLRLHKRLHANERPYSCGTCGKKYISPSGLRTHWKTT", "test": "competition", "data": [{"binder": "B1", "values": [{"measurement": "binding result", "result": "no binding"}]}]}
